# Measurements reported in US7638269B2, “Viral capsid assembly intermediates and methods of production” (priority 1997, dated 2009).
# B1: WGHP68-GST: fusion protein of wheat germ HP68 with GST at the N-terminus (protein)
# chain: MADRLTRIAIVSEDKCKPKKCRQECKKSCPVVKTGKLCIEVSPVAKLAFISEELCIGCGICVKKCPFDAIEIINLPKDLEKDTTHRYGPNTFKLHRLPVPRPGQVLGLVGTNGIGKSTALKVLAGKLKPNLGRFKNPPDWQEILTYFRGSELQNYFTRILEDNLKAIIKPQYVDHIPKAVQGNVGQVLEQKDERDMKNELCVDLELNQVIDRNVGDLSGGELQRFAIAVVAVQSAEIYMFDEPSSYLDVKQRLKAARVIRSLLRSNSYVIVVEHDLSVLDYLSDFICCLYGKPGAYGVVTLPFSVREGINIFLAGFVPTENLRFRDESLTFKIAETQESAEEVATYQRYKYPTMSKTQGNFKLSVVEGEFTDSQIVVMLGENGTGKTTFIRMLAGLLKPDTMEGTEVEIPEFNVSYKPQKISPKFQHPVRHLLHSKIRDSYTHPQFVSDVMKPLQIEQLMDQEVINLSGGELQRVALCLCLGKPADIYLIDEPSAYLDSEQRIVASKVIKRFILHAKKTAFIVEHDFIMATYLADKVIVYEGLASIDCTANAPQSLVSGMNKFLSHLDITFRRDPTNYRPRINKLESTKDREQKNAGSYYYLDD
# modifications: left off: a dimerising Fc or GST
# notes: fusion protein of wheat germ HP68 with GST at the N-terminus
# Tested on: 750S immature HIV-1 capsids
# Assay: HP68 immunodepletion-reconstitution of cell-free HIV-1 capsid assembly
# Format: biochemical
# Protocol: WG extract (150 μl) was immunodepleted for 45 min at 4° C. with 100 μl beads coupled to antibody against WGHP68. Cell-free reactions (15 μl) were programmed (Lingappa et al., J. Cell Biol. 136:567-81 (1997)) using non-depleted WG or depleted WG. To some reactions containing depleted WG, purified WGHP68-GST or HuHP68-GST fusion protein or GST alone was added (2 μl of approx. 20 ng/μl) at the start of the reaction. After 3 hours at 26° C., NP40 was added to a final concentration of 1% and reactions underwent velocity sedimentation (5 ml, 15-60% sucrose gradients, Beckman MLS55 rotor: 45,000 rpm, 45 min). Thirty fractions, collected using a fractionator, were analyzed by SDS-PAGE and AR, followed by densitometry of Gag in each lane. For Proteinase K digestion, aliquots of fractions from the 500S and 750S regions of the gradient were collected and subjected to a 10 min incubation at RT with either no Proteinase K or 0.1 μg/ml Proteinase K. Digestion was terminated by adding SDS and freezing. Samples were analyzed by SDS-PAGE and AR. Graphs show average of three independent experiments (+/−SEM).
# To generate purified HP68, WGHP68 and HuHP68 were subcloned into a pGEX vector (Pharmacia), to encode fusion proteins containing GST at the N-terminus. […] Concentration of fusion protein and GST in eluate was determined using the Coomassie Plus protein assay (Pierce). […]
molecule,measurement,setting,value
B1,total amount of radiolabeled Gag synthesized,added to HP68 immunodepleted WG extract,had no effect
same,increase in the amount of 750S capsid,added to HP68 immunodepleted WG extract programmed with HIV-1 Gag transcript,3 fold
